Results from US20050027104A1.

Legend:
[1] = target: human IgD (probe or solid phase; preparation not specified at the place) (human) (UniProt P01880); experiment: SDS-PAGE and Western blot with IgD after 60 C treatment, densitometry, 6 experiments; reference: monomeric MID962-1200
[2] = target: One of the two myelomas (purified IgD(κ) or IgD(λ); which one is not stated); experiment: dot blot, purified MID in dilutions on membrane, IgD myeloma protein as probe
[3] = target: surface-expressed B cell receptor (BCR) IgD on human CD19+ peripheral blood lymphocytes (human) (UniProt P01880); experiment: flow cytometry, MID-FITC on PBLs incubated with the pre-immune serum (no blocking)
[4] = target: surface-expressed B cell receptor (BCR) IgD on human CD19+ peripheral blood lymphocytes (human) (UniProt P01880); experiment: flow cytometry, MID-FITC on PBLs preincubated with rabbit anti-human IgD immunoglobulin fraction (competitor)

UniProt P01880, sequence (P01880 whole entry): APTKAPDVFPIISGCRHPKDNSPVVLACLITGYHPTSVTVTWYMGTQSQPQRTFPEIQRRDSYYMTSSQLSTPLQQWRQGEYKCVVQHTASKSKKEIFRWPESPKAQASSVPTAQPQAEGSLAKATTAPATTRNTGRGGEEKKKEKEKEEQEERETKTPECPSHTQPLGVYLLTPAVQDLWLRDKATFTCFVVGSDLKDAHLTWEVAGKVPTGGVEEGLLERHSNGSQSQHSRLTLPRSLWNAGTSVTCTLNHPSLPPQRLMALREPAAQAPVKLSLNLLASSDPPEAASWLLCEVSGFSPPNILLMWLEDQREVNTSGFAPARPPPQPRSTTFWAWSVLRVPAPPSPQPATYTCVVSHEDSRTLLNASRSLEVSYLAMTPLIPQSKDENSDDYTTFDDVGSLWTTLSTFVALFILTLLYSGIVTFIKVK

| Substance | fold more efficient binding to IgD than the monomeric form [1] [fold] | least amount of MID detected on the membrane [2] [µg] | Mean fluorescence intensity (arbitrary units) [3] | Mean fluorescence intensity (arbitrary units) [4] |
| --- | --- | --- | --- | --- |
| MID962-1200 (F2), tetrameric form | 23 |  |  |  |
| MID, IgD-binding surface exposed protein purified from Moraxella catarrhalis strain Bc5 (native full length MID1-2139) |  | 0.001 | 79.2 | 14.6 |
